This note sets out measurements from patent publication US20240034779A1 (Takeda / Millennium, published 2024).

One may read the Kd as the equilibrium constant for the complex coming apart. The low end stands for a tighter complex, the high end for a looser complex.

The target of test [1] is T1, cynomolgus complement factor D (CFD) (cynomolgus monkey).
T1 construct: also called cyno CFD; cynomolgus CFD
The experiment in a line: SPR (Biacore), pH 5.5. Background: In SPR one partner is held on a chip, and binding of the other changes the refractive index at the surface.

Test [2] has as its target T2, human complement factor D (CFD) (human, UniProt P00746 26-253, limits assumed).
T2 construct: also called human CFD; adipsin
Nature of the test: SPR (Biacore), pH 5.5.

For test [3], the target named is T1, cynomolgus complement factor D (CFD). The experiment in a line: SPR (Biacore), pH 7.4.
The target in test [4] is T2, human complement factor D (CFD). Nature of the test: SPR (Biacore), pH 7.4; pH 7.4.

T2 sequence (P00746 26-253 limits assumed): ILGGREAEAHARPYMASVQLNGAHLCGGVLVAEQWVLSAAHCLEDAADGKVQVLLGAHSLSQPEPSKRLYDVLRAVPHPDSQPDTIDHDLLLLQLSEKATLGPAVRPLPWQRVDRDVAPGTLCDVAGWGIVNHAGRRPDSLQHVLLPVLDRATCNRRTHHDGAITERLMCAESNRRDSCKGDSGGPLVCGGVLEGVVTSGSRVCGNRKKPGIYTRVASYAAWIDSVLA

B1: anti-CFD antibody 2 (clone 169C8) (antibody, human IgG1, lambda, L234A L235A, V domains shown)
VH: EVQVQESGPGLVKPSQTLSLTCTVSGGSITTSYYAWSWIRQPPGKGLEWMGDIANDGSTYYSPSLESRTSISRDTSKNQFSLQLSSVTPEDTAVYYCARLRSLYTDYDPHYYDYWGQGTQVTVSS
VL: SSALTQPSALSVTKGQTAKITCQGDLLPRHYAHWYQQKTGQAPKLIVYDDDIRPSGIPERFSGSNSGGVATLTIAGAQAEDEADYHCQSADSNDDAVFGGGTHLTVLS
notes: also called anti-CFD mAb 2; ASHE mAb
On to B1, for which the dissociation constant (Kd) was 4.59 nM in test [1], 805 nM in test [2], 0.037 nM in test [3] and 0.002 nM in test [4].
